Data: patent US20130217572A1, “SPECIFIC DELIVERY OF AGROCHEMICALS” (VRIJE UNIVERSITEIT BRUSSEL, priority 2010, published 2013)

Legend:
potato lectin (Sigma) [1] = target: T1, potato lectin (Sigma) (potato, UniProt Q9S8M0 23-323); assay: microcapsule retention; G: amine capsules, BS3 one-step, 1 ug VHH/cm2; potato lectin coat 1 ug/ml; 10% coverage
T1 construct: Bought glycoprotein, coated on ELISA plates
T1 sequence (looked up): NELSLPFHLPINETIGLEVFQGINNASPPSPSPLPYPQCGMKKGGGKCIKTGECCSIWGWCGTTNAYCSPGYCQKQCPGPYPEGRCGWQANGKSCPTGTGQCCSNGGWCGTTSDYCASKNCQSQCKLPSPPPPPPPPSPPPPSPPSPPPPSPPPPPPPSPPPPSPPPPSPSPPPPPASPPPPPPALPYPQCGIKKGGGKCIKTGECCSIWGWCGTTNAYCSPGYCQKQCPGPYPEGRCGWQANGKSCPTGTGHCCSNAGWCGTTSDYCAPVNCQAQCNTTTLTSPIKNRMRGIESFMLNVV

potato lectin (Sigma) [2] = target: T1, potato lectin (Sigma); assay: microcapsule retention; G: amine capsules, BS3 one-step, 1 ug VHH/cm2; potato lectin coat 1 ug/ml; 100% coverage
potato lectin (Sigma) [3] = target: T1, potato lectin (Sigma); assay: microcapsule retention; C: carboxyl capsules, EDC/Sulfo-NHS, 1 ug VHH/cm2; potato lectin coat 100 ug/ml; 100% coverage
potato lectin (Sigma) [4] = target: T1, potato lectin (Sigma); assay: microcapsule retention; K: amine capsules, BS3 two-step, 1 ug VHH/cm2; potato lectin coat 100 ug/ml; 10% coverage
potato lectin (Sigma) [5] = target: T1, potato lectin (Sigma); assay: microcapsule retention; D: carboxyl capsules, EDC/Sulfo-NHS, 0.1 ug VHH/cm2; potato lectin coat 10 ug/ml; 100% coverage
potato lectin (Sigma) [6] = target: T1, potato lectin (Sigma); assay: microcapsule retention; K: amine capsules, BS3 two-step, 1 ug VHH/cm2; potato lectin coat 100 ug/ml; 100% coverage
potato lectin (Sigma) [7] = target: T1, potato lectin (Sigma); assay: microcapsule retention; C: carboxyl capsules, EDC/Sulfo-NHS, 1 ug VHH/cm2; potato lectin coat 1 ug/ml; 10% coverage
potato lectin (Sigma) [8] = target: T1, potato lectin (Sigma); assay: microcapsule retention; C: carboxyl capsules, EDC/Sulfo-NHS, 1 ug VHH/cm2; potato lectin coat 1 ug/ml; 100% coverage
potato lectin (Sigma) [9] = target: T1, potato lectin (Sigma); assay: microcapsule retention; D: carboxyl capsules, EDC/Sulfo-NHS, 0.1 ug VHH/cm2; potato lectin coat 10 ug/ml; 10% coverage
potato lectin (Sigma) [10] = target: T1, potato lectin (Sigma); assay: microcapsule retention; D: carboxyl capsules, EDC/Sulfo-NHS, 0.1 ug VHH/cm2; potato lectin coat 100 ug/ml; 100% coverage
potato lectin (Sigma) [11] = target: T1, potato lectin (Sigma); assay: microcapsule retention; D: carboxyl capsules, EDC/Sulfo-NHS, 0.1 ug VHH/cm2; potato lectin coat 1 ug/ml; 10% coverage
potato lectin (Sigma) [12] = target: T1, potato lectin (Sigma); assay: microcapsule retention; D: carboxyl capsules, EDC/Sulfo-NHS, 0.1 ug VHH/cm2; potato lectin coat 1 ug/ml; 100% coverage
potato lectin (Sigma) [13] = target: T1, potato lectin (Sigma); assay: microcapsule retention; H: amine capsules, BS3 one-step, 0.1 ug VHH/cm2; potato lectin coat 10 ug/ml; 10% coverage
potato lectin (Sigma) [14] = target: T1, potato lectin (Sigma); assay: microcapsule retention; C: carboxyl capsules, EDC/Sulfo-NHS, 1 ug VHH/cm2; potato lectin coat 10 ug/ml; 100% coverage
potato lectin (Sigma) [15] = target: T1, potato lectin (Sigma); assay: microcapsule retention; L: amine capsules, BS3 two-step, 0.1 ug VHH/cm2; potato lectin coat 100 ug/ml; 10% coverage
potato lectin (Sigma) [16] = target: T1, potato lectin (Sigma); assay: microcapsule retention; D: carboxyl capsules, EDC/Sulfo-NHS, 0.1 ug VHH/cm2; potato lectin coat 100 ug/ml; 10% coverage
potato lectin (Sigma) [17] = target: T1, potato lectin (Sigma); assay: microcapsule retention; L: amine capsules, BS3 two-step, 0.1 ug VHH/cm2; potato lectin coat 100 ug/ml; 100% coverage
unrelated antigens [18] = assay: VHH-coupled Uvitex OB microcapsules retained on wells coated with unrelated antigen; 100% surface coverage
[19] = system: gum arabic or potato lectin; assay: Lambda cyhalothrin amounts in wells with bound microcapsules (GC/MS-MS); type: binding; conditions: VHH coupled to lambda cyhalothrin microcapsules
Description: In another experiment lambda cyhalothrin amounts were also determined analytically. 100 μl/well aceton was added to washed wells with bound microcapsules and transferred to glass vials with 10 ml of hexane containing 0.05% triphenylphosphate as internal standard. The amount of lambda cyhalothrin was determined by GC/MS-MS analysis in comparison with calibration solutions. Controls for lambda cyhalothrin microcapsules included blank microcapsules to which no VHH were coupled and microcapsules to which unrelated VHH were coupled. Controls also included wells to which no gum arabic or potato lectin was coated.

unrelated antigens [20] = assay: VHH-coupled Uvitex microcapsules retained on wells coated with unrelated antigen; 20% surface coverage
potato lectin = target: T2, potato lectin (Solanum tuberosum, UniProt Q9S8M0); assay: VHH binding to potato lectin in ELISA; conditions: blank wells; VHH 3 μg/ml
T2 sequence (Q9S8M0 23-323): T1 sequence (looked up)
Description: ELISA plates (Maxisorp, Nunc) coated with 100 μl per well 100 μg/ml potato lectin (Sigma) in PBS were coated at 4° C. overnight and coating was continued at room temperature for 1 hour on the next day. Plates were washed three times with PBS/0.05%-TWEEN®-20 and blocked with 5% skimmed milk in PBS for 1 hour. VHH (3 μg/ml) were transferred to the potato lectin-coated plates and VHH antibody fragments were allowed to bind for 1 hour at room temperature. Bound VHH were detected with sequential incubations with monoclonal mouse anti-histidine antibodies (Abd Serotec) and rabbit anti-mouse IgG whole molecule antibodies conjugated with alkaline phosphatase (RaM/AP) (Sigma) in 1% MPBS/0.05%-TWEEN®-20. Unbound antibodies were removed by washing three times with PBS/0.05%-TWEEN®-20 after each antibody incubation. The plates were washed an additional two times with PBS and 100 μl pNPP disodium hexahydrate substrate (Sigma) was added to each well and the absorbance at 405 nm was measured (see Table 2).

With Control VHH the microcapsule counts (microcapsules) (potato lectin (Sigma) [1]) was 7, the microcapsule counts (microcapsules) (potato lectin (Sigma) [2]) was 46 and the microcapsule counts (microcapsules) (potato lectin (Sigma) [3]) was 297. The microcapsule counts (microcapsules) (potato lectin (Sigma) [4]) was 285, the microcapsule counts (microcapsules) (potato lectin (Sigma) [5]) was 475 and the microcapsule counts (microcapsules) (potato lectin (Sigma) [6]) was 866. The microcapsule counts (microcapsules) (potato lectin (Sigma) [7]) was 49, the microcapsule counts (microcapsules) (potato lectin (Sigma) [8]) was 193 and the microcapsule counts (microcapsules) (potato lectin (Sigma) [9]) was 118. For the same molecule, the microcapsule counts (microcapsules) (potato lectin (Sigma) [10]) was 515, the microcapsule counts (microcapsules) (potato lectin (Sigma) [11]) was 64 and the microcapsule counts (microcapsules) (potato lectin (Sigma) [12]) was 227. The microcapsule counts (microcapsules) (potato lectin (Sigma) [13]) was 215, the microcapsule counts (microcapsules) (potato lectin (Sigma) [14]) was 265 and the microcapsule counts (microcapsules) (potato lectin (Sigma) [15]) was 248. The microcapsule counts (microcapsules) (potato lectin (Sigma) [16]) was 125 and the microcapsule counts (microcapsules) (potato lectin (Sigma) [17]) was 1110.

B1: VHH 3E6 (VHH)
VHH: QVQLQESGGGLVQPGGTLSLSCAASGFNVRWYGMGWFRQAPGKEREGVACISALQETTAYADSVKGRFTLSRDNPKNTLSLQMNNLQPEDTGVYYCATTDCDDSSRMTYTSYLGQGTQVTVSS
notes: also called Monovalent VHH 3E6
In the case of B1, the area of bound microcapsules (unrelated antigens [18]) is reported as 84.5, the “increase of amounts of lambda cyhalothrin in wells coated with antigen” value ([19]; compared to blank microcapsules) is reported as 23 fold and the “increase of amounts of lambda cyhalothrin in wells coated with antigen” value ([19]; over blank wells not coated with antigen) is reported as 27 fold. For the same molecule, the surface area of bound microcapsules (unrelated antigens [20]) was 27.7 and the “absorbance at 405 nm” value (potato lectin) was 0.067.
